Publication PMC10976963

Molecular target: actin of the cytoskeleton of living U2OS cells (human (endogenous in U2OS)) (UniProt P60709)
Assay: FRAP; fluorescence recovery after photobleaching at lamellipodia of living U2OS cells expressing mEGFP-DARPins or mCherry-LifeAct, 37 °C, single-exponential fit

FRAP half-recovery time (τ1/2) at lamellipodia: 0.47 s
Substance: mCherry-LifeAct (peptide)
